Data as given in the supplement of paper PMC10724198.
± gives the standard deviation of the averaged measurements.

Tested on: Saccharomyces cerevisiae
Assay: protein stability index of tFT-peptide fusion (C-terminal peptide) (PSI (0-1 scale)); higher = more stable (slower turnover)
Settings: temperature: 30 C
Procedure: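 MPS profiling in S. cerevisiae of the yeast C-terminome library: the last 12 aa of each annotated ORF are fused to the C-terminus of a sfGFP-mCherry timer, after a GGGS linker. Cells are FACS-sorted into 8 mCherry/sfGFP bins and deep-sequenced. PSI runs from 0 (unstable) to 1 (stable); wild type and das1Δ backgrounds, two technical replicates each.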

[1] = genetic background: das1 deletion

Sequence	protein stability index [1]	protein stability index (genetic background: wild type)
DDNDTSAYYEDN [GSY1 C-terminal 12 aa]	0.689 ± 0.0083	0.803 ± 0.073
IQKLNKVLEDSI [ATP5 C-terminal 12 aa]	0.6748 ± 0.0023	0.675 ± 0.02
EGVRNRRKALKK [ARO3 C-terminal 12 aa]	0.684 ± 0.027	0.669 ± 0.022
TGTSTEAPSAAN [NCL1 C-terminal 12 aa]	0.6661 ± 0.00092	0.6578 ± 0.0053
ASIGSDIVNNIF [PIN3 C-terminal 12 aa]	0.712 ± 0.032	0.711 ± 0.04
DPERQNNSNFYN [SMC6 C-terminal 12 aa]	0.702 ± 0.052	0.686 ± 0.026
KKRNWKRREASS [NRG2 C-terminal 12 aa]	0.698 ± 0.016	0.626 ± 0.044
CEVYCSKNSCAS [YBR099C C-terminal 12 aa]	0.6895 ± 0.0012	0.661 ± 0.031
RLPRSFLFLNKK [YOR343C C-terminal 12 aa]	0.723 ± 0.01	0.665 ± 0.028
KKAPYFLPAPHT [FMO1 C-terminal 12 aa]	0.7 ± 0.012	0.715 ± 0.0093
RRQMGIPTISQV [FHN1 C-terminal 12 aa]	0.681 ± 0.016	0.6838 ± 0.0048
PLFADYLNKNLN [KTI12 C-terminal 12 aa]	0.7162 ± 0.0014	0.671 ± 0.014
MSKLGLIPKDFQ [HIS4 C-terminal 12 aa]	0.6931 ± 0.0056	0.707 ± 0.036
SSFSLSLPRLNQ [SPT7 C-terminal 12 aa]	0.6893 ± 0.0022	0.675 ± 0.028
GKLAEILKPVFQ [GRX2 C-terminal 12 aa]	0.706 ± 0.011	0.677 ± 0.0068
KRTKTKITSNNG [YBR190W C-terminal 12 aa]	0.711 ± 0.012	0.69 ± 0.018
NERGLSSNYQTI [FMP42 C-terminal 12 aa]	0.7217 ± 0.0025	0.6736 ± 0.0013

Sequence	protein stability index [1]	protein stability index (genetic background: wild type)
VKPSQDNVDSKD [OPI1 C-terminal 12 aa]	0.687 ± 0.0096	0.668 ± 0.022
YIHTYIYLLFVY [YIL100C-A C-terminal 12 aa]	0.222 ± 0.01	0.198 ± 0.036
QGYKPNQSDRYY [PIN2 C-terminal 12 aa]	0.68 ± 0.013	0.711 ± 0.044
VFLIISQHSLHS [YBL113W-A C-terminal 12 aa]	0.6652 ± 0.0044	0.646 ± 0.029
VQRSASVVERQE [DUS4 C-terminal 12 aa]	0.6971 ± 0.0051	0.694 ± 0.0013
ELIISKREIEKE [GEA1 C-terminal 12 aa]	0.724 ± 0.022	0.731 ± 0.079
RAGRSTLKETPQ [CCT6 C-terminal 12 aa]	0.673 ± 0.018	0.692 ± 0.071
CVDCGTVVNNFR [LAF1 C-terminal 12 aa]	0.723 ± 0.019	0.688 ± 0.025
QLEEELMDMLDD [FCP1 C-terminal 12 aa]	0.674 ± 0.01	0.6692 ± 0.0016
EILSMPDLSKYQ [SDH5 C-terminal 12 aa]	0.6922 ± 0.0032	0.704 ± 0.044
MERRARQQRGQD [MND2 C-terminal 12 aa]	0.71114 ± 0.0003	0.717 ± 0.046
TLEDEALQRNSK [JNM1 C-terminal 12 aa]	0.722 ± 0.0093	0.686 ± 0.017
SELKGFVDEVDL [TFC1 C-terminal 12 aa]	0.7183 ± 0.0033	0.721 ± 0.037
VTLLQMKKKLEG [PET20 C-terminal 12 aa]	0.6926 ± 0.0053	0.761 ± 0.042
FKMCETEMQPIK [YGR201C C-terminal 12 aa]	0.7043 ± 0.0065	0.669 ± 0.013
NDKGEQVVGGNE [TMA16 C-terminal 12 aa]	0.663 ± 0.042	0.717 ± 0.04
FDALMNNDGDSD [TIF4632 C-terminal 12 aa]	0.68 ± 0.016	0.6696 ± 0.0037
